Experiments:
[1] = Plasma total GAA protein pharmacokinetics, phase 1/2 study in adults with Pompe disease; type: in vivo, human; details: for Total GAA Protein AUC0-t / Total GAA Protein AUC0-∞ / Total GAA Protein Cmax: n = 8, geometric mean
Protocol: Mean total GAA protein and miglustat PK results from the first 8 Cohort 1 patients through Visit 9 and the first 2 Cohort 3 patients were assessed.

[2] = Flocculation in human serum; parameters: key to Serum Macro (precipitation/coagulation score) / Serum Micro (precipitation/coagulation score) / Serum Pellet (score): 0=negative; 1=very slight precipitation or pellet; 2=minimal precipitation or pellet; 3=moderate precipitation or pellet; 4=significant precipitation or pellet
Protocol: (§1) Test article dosing solutions (3 concentrations) and the placebo (3 concentrations) were mixed with equal volumes of human plasma and serum from a donor. […] The placebo was the same as the test article except there was no ATB200 rhGAA.
(§2) One ml of each dose of test article or placebo, was mixed with an equal volume of plasma, serum and saline. Samples were incubated for 30 minutes at room temperature. After incubation the tubes were examined macroscopically and microscopically for precipitation or coagulation. An aliquot from each tube was centrifuged at 14,000 rpm in a microcentrifuge for 10 minutes. Each tube was examined for the presence or absence of a pellet. Precipitation/coagulation and pellets were scored as follows: • 0=negative • 1=very slight precipitation or pellet • 2=minimal precipitation or pellet • 3=moderate precipitation or pellet • 4=significant precipitation or pellet

[3] = Flocculation in human plasma; parameters: key to Plasma Macro (precipitation/coagulation score) / Plasma Micro (precipitation/coagulation score) / Plasma Pellet (score): 0=negative; 1=very slight precipitation or pellet; 2=minimal precipitation or pellet; 3=moderate precipitation or pellet; 4=significant precipitation or pellet
Protocol: as §1, §2

[4] = test system: Gaa KO mice; test: Muscle function in Gaa-knockout mice, 12 biweekly administrations (grip strength, wire hang); type: in vivo, mouse; details: 6 months, with or without miglustat
From the text: In FIG. 18A, * indicates statistically significant compared to Lumizyme® alone (p<0.05, 2-sided t-test). In FIGS. 19A-19G, * indicates statistically significant compared to Lumizyme® alone (p<0.05, multiple comparison using Dunnett's method under one-way ANOVA analysis).

[5] = test system: Gaa knockout mice; test: Muscle physiology and morphology in Gaa-knockout mice (LAMP1, PAS, vacuoles); type: in vivo, mouse
Protocol: Control mice were treated with vehicle alone. Soleus, quadriceps and diaphragm tissue is harvested two weeks after the last dose of recombinant human acid α-glucosidase. […] Semi-thin sections of quadriceps muscle embedded in epoxy resin (Epon) were stained with methylene blue and observed by […] (1000×) to determine the extent of the presence of vacuoles. Quadriceps muscle samples were analyzed immunohistochemically to determine levels of the autophagy markers microtubule-associated protein 1A/1B-light chain 3 phosphatidylethanolamine conjugate (LC3A II) and p62, the insulin-dependent glucose transporter GLUT4 and the insulin-independent glucose transporter GLUT1. […] Control mice were treated with vehicle alone. Cardiac muscle tissue was harvested two weeks after the last dose of recombinant human acid α-glucosidase and analyzed for glycogen levels, by staining with periodic acid—Schiff reagent (PAS), and for lysosome proliferation, by measuring levels of LAMPI.

[6] = test system: Pompe fibroblasts and skeletal muscle myoblasts; test: Internalization by Pompe fibroblasts and skeletal muscle myoblasts; type: cell-based
[7] = Apparent plasma half-life in vivo
[8] = test system: Gaa knockout mice; test: Glycogen reduction in Gaa-knockout mice; type: in vivo, mouse
From the text: Animals were given two IV bolus administrations (every other week); tissues were harvested two weeks after the last dose and analyzed for acid α-glucosidase activity and glycogen content.
Tissues were collected 14 days after last enzyme dose for glycogen measurement.

[9] = Flocculation study: test article mixed with equal volume of saline (macro, micro, pellet); parameters: key: 0=negative; 1=very slight precipitation or pellet; 2=minimal precipitation or pellet; 3=moderate precipitation or pellet; 4=significant precipitation or pellet
Protocol: as §1, §2

[10] = test system: normal and Pompe fibroblast cell lines; test: Cellular uptake of rhGAA in normal and Pompe fibroblast cell lines; type: cell-based
Protocol: The relative cellular uptake of ATB200 and Lumizyme® rhGAA were compared using normal and Pompe fibroblast cell lines. […] After 16-hr incubation, external rhGAA was inactivated with TRIS base and cells were washed 3-times with PBS prior to harvest. Internalized GAA measured by 4MU-α-Glucoside hydrolysis and was graphed relative to total cellular protein and the results appear in FIGS. 11A-B.

[11] = Cohort 1, 5 mg/kg alone, n = 8, arithmetic mean
[12] = Cohort 1, 10 mg/kg alone, n = 8, arithmetic mean
[13] = Cohort 1, 20 mg/kg alone, n = 8, arithmetic mean
[14] = Cohort 1, ATB200 20 mg/kg + miglustat high MD, n = 8, arithmetic mean
[15] = Cohort 1, ATB200 20 mg/kg + miglustat high SD, n = 7, arithmetic mean
[16] = Cohort 1, ATB200 20 mg/kg + miglustat low MD, n = 8, arithmetic mean
[17] = Cohort 1, ATB200 20 mg/kg + miglustat low SD, n = 8, arithmetic mean
[18] = Cohort 3, ATB200 20 mg/kg + miglustat high MD (first Cohort 3 line), n = 2, arithmetic mean
[19] = Cohort 3, ATB200 20 mg/kg + miglustat high MD (second Cohort 3 line), n = 2, arithmetic mean

Substance: ATB200: recombinant human acid α-glucosidase expressed in CHO cells with increased content of M6P-bearing N-glycans
- increase of distribution half-life (α-phase) ([1]; ATB200 20 mg/kg with miglustat 260 mg relative to ATB200 alone): 45%
- increase of total GAA protein exposure (AUC) ([1]; ATB200 20 mg/kg with miglustat 260 mg relative to ATB200 alone at 20 mg/kg): approximately 25%
- dose proportionality of plasma total GAA protein ([1]; ATB200 given alone, 5, 10, 20 mg/kg): increases in a slightly greater-than-dose-proportional manner
- Total GAA Protein CLT [1, 11]: 2.1 L/h
- Total GAA Protein VSS [1, 11]: 4.62 L
- Total GAA Protein αt1/2 [1, 11]: 1.1 h
- Total GAA Protein βt1/2 [1, 11]: 1.9 h
- Total GAA Protein AUC0-t ([1]; Cohort 1, 5 mg/kg alone): 215 ng·h/mL
- Total GAA Protein AUC0-∞ ([1]; Cohort 1, 5 mg/kg alone): 218 ng·h/mL
- Total GAA Protein Cmax ([1]; Cohort 1, 5 mg/kg alone): 61 ng/mL
- Total GAA Protein tmax ([1]; Cohort 1, 5 mg/kg alone, n = 8, median): 3.8 h
- Total GAA Protein CLT [1, 12]: 1.59 L/h
- Total GAA Protein VSS [1, 12]: 3.87 L
- Total GAA Protein αt1/2 [1, 12]: 1.3 h
- Total GAA Protein βt1/2 [1, 12]: 1.6 h
- Total GAA Protein AUC0-t ([1]; Cohort 1, 10 mg/kg alone): 578 ng·h/mL
- Total GAA Protein AUC0-∞ ([1]; Cohort 1, 10 mg/kg alone): 584 ng·h/mL
- Total GAA Protein Cmax ([1]; Cohort 1, 10 mg/kg alone): 144 ng/mL
- Total GAA Protein CLT [1, 13]: 1.22 L/h
- Total GAA Protein VSS [1, 13]: 3.52 L
- Total GAA Protein αt1/2 [1, 13]: 1.5 h
- Total GAA Protein βt1/2 [1, 13]: 2.1 h
- Total GAA Protein AUC0-t ([1]; Cohort 1, 20 mg/kg alone): 1508 ng·h/mL
- Total GAA Protein AUC0-∞ ([1]; Cohort 1, 20 mg/kg alone): 1512 ng·h/mL
- Total GAA Protein Cmax ([1]; Cohort 1, 20 mg/kg alone): 345 ng/mL
- Total GAA Protein CLT [1, 14]: 0.98 L/h
- Total GAA Protein αt1/2 [1, 14]: 2.1 h
- Total GAA Protein βt1/2 [1, 14]: 2.5 h
- Total GAA Protein CLT [1, 15]: 0.98 L/h
- Total GAA Protein αt1/2 [1, 15]: 2.3 h
- Total GAA Protein βt1/2 [1, 15]: 2.7 h
- Total GAA Protein CLT [1, 16]: 1.02 L/h
- Total GAA Protein αt1/2 [1, 16]: 1.9 h
- Total GAA Protein βt1/2 [1, 16]: 2.5 h
- Total GAA Protein CLT [1, 17]: 1.09 L/h
- Total GAA Protein αt1/2 [1, 17]: 1.8 h
- Total GAA Protein βt1/2 [1, 17]: 2.4 h
- Total GAA Protein CLT [1, 18]: 0.69 L/h
- Total GAA Protein αt1/2 [1, 18]: 2 h
- Total GAA Protein βt1/2 [1, 18]: 2.4 h
- Total GAA Protein CLT [1, 19]: 0.66 L/h
- Total GAA Protein αt1/2 [1, 19]: 1.9 h
- Total GAA Protein βt1/2 [1, 19]: 2.6 h
- volume of distribution ([1]; in vivo): relatively high volume of distribution
- Serum Macro (precipitation/coagulation score) ([2]; Final concentration 300 μg/mL): 0
- Serum Micro (precipitation/coagulation score) ([2]; Final concentration 300 μg/mL): 0
- Serum Pellet (score) ([2]; Final concentration 300 μg/mL): 0
- Serum Macro (precipitation/coagulation score) ([2]; Final concentration 600 μg/mL): 0
- Serum Micro (precipitation/coagulation score) ([2]; Final concentration 600 μg/mL): 0
- Serum Pellet (score) ([2]; Final concentration 600 μg/mL): 0
- Serum Macro (precipitation/coagulation score) ([2]; Final concentration 1000 μg/mL): 0
- Serum Micro (precipitation/coagulation score) ([2]; Final concentration 1000 μg/mL): 0
- Serum Pellet (score) ([2]; Final concentration 1000 μg/mL): 0
- pellet after centrifugation ([2]; human serum, 14,000 rpm 10 minutes): no pellets were observed
- precipitation, macroscopic and microscopic ([2]; human serum, each ATB200 concentration, 30 minutes at room temperature): No precipitation was observed macroscopically or microscopically
- Plasma Macro (precipitation/coagulation score) ([3]; Final concentration 300 μg/mL): 0
- Plasma Micro (precipitation/coagulation score) ([3]; Final concentration 300 μg/mL): 0
- Plasma Pellet (score) ([3]; Final concentration 300 μg/mL): 0
- Plasma Macro (precipitation/coagulation score) ([3]; Final concentration 600 μg/mL): 0
- Plasma Micro (precipitation/coagulation score) ([3]; Final concentration 600 μg/mL): 0
- Plasma Pellet (score) ([3]; Final concentration 600 μg/mL): 0
- Plasma Macro (precipitation/coagulation score) ([3]; Final concentration 1000 μg/mL): 0
- Plasma Micro (precipitation/coagulation score) ([3]; Final concentration 1000 μg/mL): 0
- Plasma Pellet (score) ([3]; Final concentration 1000 μg/mL): 0
- pellet after centrifugation ([3]; human plasma, 14,000 rpm 10 minutes): no pellets were observed
- precipitation, macroscopic and microscopic ([3]; human plasma, each ATB200 concentration, 30 minutes at room temperature): No precipitation was observed macroscopically or microscopically
- intracellular accumulation of dystrophin [4]: lowered intracellular accumulation of dystrophin in Gaa KO mice
- lysosome proliferation (LAMP1) ([5]; 20 mg/kg every other week, heart, diaphragm, soleus): reduction in lysosome proliferation in heart, diaphragm and skeletal muscle (soleus) tissue compared to conventional treatment with alglucosidase alfa
- punctate glycogen levels (PAS) ([5]; 20 mg/kg every other week, heart, soleus): reduction in punctate glycogen levels in heart and skeletal muscle (soleus) tissue compared to conventional treatment with alglucosidase alfa
- number of vacuoles in muscle fiber in quadriceps ([5]; 20 mg/kg, two IV bolus administrations): significantly reduced the number of vacuoles in muscle fiber in the quadriceps of Gaa knockout mice
- Kuptake [6]: 7 to 14 nM
- apparent plasma half-life (t1/2) [7]: ~0.75 h
- relative reduction of glycogen in quadriceps and triceps ([8]; 20 mg/kg IV every other week, 4 injections, FIG. 13): greater reduction of glycogen than Lumizyme®
- tissue glycogen depletion ([8]; 5, 10, 20 mg/kg, two IV bolus administrations every other week): deplete tissue glycogen in acid α-glucosidase (Gaa) knockout mice in a dose-dependent fashion
- reduction of glycogen levels in skeletal muscles ([8]; ATB200 10 and 20 mg/kg vs Lumizyme 20 mg/kg): significantly better reduction of glycogen levels in skeletal muscles than Lumizyme®
- Saline Macro (precipitation/coagulation score) ([9]; Final concentration 300 μg/mL): 0
- Saline Micro (precipitation/coagulation score) ([9]; Final concentration 300 μg/mL): 0
- Saline Pellet (score) ([9]; Final concentration 300 μg/mL): 0
- Saline Macro (precipitation/coagulation score) ([9]; Final concentration 600 μg/mL): 0
- Saline Micro (precipitation/coagulation score) ([9]; Final concentration 600 μg/mL): 0
- Saline Pellet (score) ([9]; Final concentration 600 μg/mL): 0
- Saline Macro (precipitation/coagulation score) ([9]; Final concentration 1000 μg/mL): 0
- Saline Micro (precipitation/coagulation score) ([9]; Final concentration 1000 μg/mL): 0
- Saline Pellet (score) ([9]; Final concentration 1000 μg/mL): 0
- concentration that saturates cellular receptors ([10]; 16-hr incubation): about 20 nM
- internalization into normal and Pompe fibroblast cells ([10]; versus Lumizyme): internalized to a greater degree than conventional Lumizyme® rhGAA

From patent US10512676B2, “Formulations comprising recombinant acid alpha-glucosidase” (Amicus Therapeutics, Inc., priority 2016, dated 2019)
